Test results: US20240352433, “ENZYMES WITH HEPN DOMAINS” (Metagenomi, Inc., published 2024)
Positions count from the first letter of the chain named.

Assays:
MG103-6 = molecular target: T1, MG103-6 (uncultivated organism); test: crRNA processing by RNAseq: 6 nt trimmed from 5' of repeat, 30 nt repeat, 21 and 26 nt spacers
T1 chain: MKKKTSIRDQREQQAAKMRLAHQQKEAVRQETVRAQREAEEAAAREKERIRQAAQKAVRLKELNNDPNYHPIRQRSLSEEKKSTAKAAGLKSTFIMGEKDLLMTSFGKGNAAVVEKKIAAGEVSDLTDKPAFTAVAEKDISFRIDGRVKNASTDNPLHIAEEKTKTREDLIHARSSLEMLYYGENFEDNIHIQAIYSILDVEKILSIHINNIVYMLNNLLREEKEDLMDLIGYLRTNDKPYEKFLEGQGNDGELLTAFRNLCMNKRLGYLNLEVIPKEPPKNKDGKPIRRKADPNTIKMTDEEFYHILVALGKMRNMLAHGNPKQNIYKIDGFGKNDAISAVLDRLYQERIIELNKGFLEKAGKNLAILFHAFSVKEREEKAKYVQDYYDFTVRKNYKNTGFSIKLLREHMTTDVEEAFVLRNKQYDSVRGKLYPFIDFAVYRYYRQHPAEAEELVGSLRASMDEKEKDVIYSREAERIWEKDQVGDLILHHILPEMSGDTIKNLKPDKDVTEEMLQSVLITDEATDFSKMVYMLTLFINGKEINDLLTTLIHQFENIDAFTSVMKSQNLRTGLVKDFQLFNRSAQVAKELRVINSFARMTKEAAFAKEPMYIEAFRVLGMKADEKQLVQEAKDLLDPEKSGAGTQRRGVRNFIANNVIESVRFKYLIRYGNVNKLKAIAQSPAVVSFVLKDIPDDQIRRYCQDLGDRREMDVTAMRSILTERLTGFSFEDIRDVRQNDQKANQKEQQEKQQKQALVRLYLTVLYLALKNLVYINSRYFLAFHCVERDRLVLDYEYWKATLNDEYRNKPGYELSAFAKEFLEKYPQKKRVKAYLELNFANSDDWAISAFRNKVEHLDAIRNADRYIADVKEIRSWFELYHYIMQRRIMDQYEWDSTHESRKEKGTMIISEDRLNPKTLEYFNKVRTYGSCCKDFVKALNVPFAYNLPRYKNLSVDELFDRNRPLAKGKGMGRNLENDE
Procedure: (§1) RNA was extracted from PURExpress cell lysate expressions following the Quick-RNA™ Miniprep Kit (Zymo Research) and eluted in 30-50 μL of water. 5′ ends of the processed crRNA were mono-phosphorylated with 10 units of T4 Polynucleotide Kinase, 40 units of Murine RNase Inhibitor, and 1X of T4 DNA Ligase Buffer (NEB Inc.) in 25-50 μL reactions. Following a 30-minute incubation at 37° C., reactions were stopped with column purification using Monarch® RNA Cleanup Kit ([…]) (NEB Inc.). The total concentration of the transcripts were measured on a Nanodrop, Tapestation, and Qubit.
(§2) 100ng-1pg of total RNA from each sample were prepped for RNA sequencing using the NEBNext Small RNA Library Prep Set for Illumina (NEB Inc.). Amplicons between 150-300 bp were quantified by Tapestation and Qubit and pooled to a concentration of 4 nM. A concentration of […] was loaded into a MiSeq V3 kit and sequenced in a Miseq system (Illumina) for 176 total cycles. The RNAseq reads were used to identify the processed crRNA sequences. Illumina adapters were removed from all reads using fastp (see e.g., Bioinformatics 2018, 34 (17), i884-i890, which is incorporated by reference herein in its entirety). […]

MG103-12 = molecular target: T2, MG103-12 (uncultivated organism); test: crRNA processing by RNAseq: 30 nt repeat, 21 nt spacer
T2 chain: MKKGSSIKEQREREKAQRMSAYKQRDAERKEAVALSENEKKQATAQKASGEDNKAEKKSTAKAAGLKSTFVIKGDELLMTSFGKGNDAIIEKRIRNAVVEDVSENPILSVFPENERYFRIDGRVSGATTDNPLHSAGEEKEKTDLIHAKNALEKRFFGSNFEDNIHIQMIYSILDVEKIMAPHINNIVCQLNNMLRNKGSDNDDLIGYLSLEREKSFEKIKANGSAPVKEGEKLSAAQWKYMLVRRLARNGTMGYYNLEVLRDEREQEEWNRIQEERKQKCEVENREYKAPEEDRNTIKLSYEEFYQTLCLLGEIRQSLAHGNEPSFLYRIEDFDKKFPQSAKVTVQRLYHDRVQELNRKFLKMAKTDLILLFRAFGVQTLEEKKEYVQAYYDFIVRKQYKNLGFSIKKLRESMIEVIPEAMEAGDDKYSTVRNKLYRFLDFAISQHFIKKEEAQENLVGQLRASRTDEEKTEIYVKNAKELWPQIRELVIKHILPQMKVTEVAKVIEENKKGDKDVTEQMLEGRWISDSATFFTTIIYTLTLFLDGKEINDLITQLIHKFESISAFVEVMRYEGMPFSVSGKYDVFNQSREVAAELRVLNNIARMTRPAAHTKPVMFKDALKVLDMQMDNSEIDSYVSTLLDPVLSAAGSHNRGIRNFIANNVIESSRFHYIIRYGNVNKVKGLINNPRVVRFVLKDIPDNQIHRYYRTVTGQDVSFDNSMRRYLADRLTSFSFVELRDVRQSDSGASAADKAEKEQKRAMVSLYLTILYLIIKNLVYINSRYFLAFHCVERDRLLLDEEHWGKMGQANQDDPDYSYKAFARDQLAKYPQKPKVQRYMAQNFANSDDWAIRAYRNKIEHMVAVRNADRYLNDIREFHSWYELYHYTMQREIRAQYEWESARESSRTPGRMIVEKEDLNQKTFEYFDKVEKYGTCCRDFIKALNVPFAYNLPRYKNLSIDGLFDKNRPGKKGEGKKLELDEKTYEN
Procedure: as §1, §2

MG105-1 = molecular target: T3, MG105-1 (uncultivated organism); test: crRNA processing: 10 nt trimmed 5' of spacer, 36 nt repeat retained; spacer 5' of repeat
T3 chain: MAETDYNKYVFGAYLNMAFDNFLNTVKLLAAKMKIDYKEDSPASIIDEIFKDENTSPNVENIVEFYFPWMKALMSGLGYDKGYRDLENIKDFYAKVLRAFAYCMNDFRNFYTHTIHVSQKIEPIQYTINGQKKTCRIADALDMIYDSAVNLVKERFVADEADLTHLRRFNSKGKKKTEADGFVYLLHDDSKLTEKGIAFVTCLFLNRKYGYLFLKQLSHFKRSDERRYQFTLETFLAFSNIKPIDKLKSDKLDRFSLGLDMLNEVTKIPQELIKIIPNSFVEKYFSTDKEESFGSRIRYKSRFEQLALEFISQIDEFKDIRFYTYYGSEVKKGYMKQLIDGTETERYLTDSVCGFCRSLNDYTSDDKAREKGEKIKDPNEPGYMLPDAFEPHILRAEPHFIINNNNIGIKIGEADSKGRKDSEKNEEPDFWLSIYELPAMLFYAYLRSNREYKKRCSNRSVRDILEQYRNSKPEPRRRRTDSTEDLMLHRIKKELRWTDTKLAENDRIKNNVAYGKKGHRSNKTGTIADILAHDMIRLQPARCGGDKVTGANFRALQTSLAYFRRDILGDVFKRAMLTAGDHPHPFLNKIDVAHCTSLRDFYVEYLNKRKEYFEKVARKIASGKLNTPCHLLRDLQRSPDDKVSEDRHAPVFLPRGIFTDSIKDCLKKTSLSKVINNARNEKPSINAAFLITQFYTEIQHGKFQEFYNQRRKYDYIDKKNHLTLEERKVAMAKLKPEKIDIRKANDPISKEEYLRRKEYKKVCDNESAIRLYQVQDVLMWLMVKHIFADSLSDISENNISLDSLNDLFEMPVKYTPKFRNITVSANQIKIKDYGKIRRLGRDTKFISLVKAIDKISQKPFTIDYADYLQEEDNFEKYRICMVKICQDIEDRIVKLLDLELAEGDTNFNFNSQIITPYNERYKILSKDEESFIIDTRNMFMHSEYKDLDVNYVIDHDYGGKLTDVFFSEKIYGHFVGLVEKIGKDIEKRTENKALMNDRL
Procedure: as §1, §2

B1: 103-6_MA_30_REV array (ssRNA)
RNA: GGAACUACACCCUUACGAACUCGUAGGGGUCUGAAACCCGUCCAGCUCGACCAGGAUGGGAACAACGGAACUACACCCUUACGAACUCGUAGGGGUCUGAAACAGGCUAGGUGGAGGCUCAGUG
- binding result (MG103-6): binds

B2: 103-12_MA_30_FWD array (ssRNA)
RNA: B1 RNA with G17C, A18G, C20U, C22G, G26A, G83C, A84G, C86U, C88G, G92A
- binding result (MG103-12): binds

B3: 105-1_MA_30_REV array (ssRNA)
RNA: GGUUGUAACAGCCUUUAGUUUGUAAGGUAAAAACAACCCGUCCAGCUCGACCAGGAUGGGAACAACGGUUGUAACAGCCUUUAGUUUGUAAGGUAAAAACAACAGGCUAGGUGGAGGCUCAGUG
- binding result (MG105-1): binds
